# T1: BCMA on BCMA-positive myeloma cell lines (NCI-H929, ARP-1, U266B1) (Homo sapiens (Human), UniProt Q02223 1-184)
# T1 sequence: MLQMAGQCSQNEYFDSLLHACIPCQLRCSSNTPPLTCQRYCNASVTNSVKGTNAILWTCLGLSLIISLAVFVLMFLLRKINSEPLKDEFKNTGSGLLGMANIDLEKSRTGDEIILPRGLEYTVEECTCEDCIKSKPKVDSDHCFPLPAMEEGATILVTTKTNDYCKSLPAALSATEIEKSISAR
# B1: Antibody 2265-F02 (antibody, V domains shown)
# VH: EVQLVESGGGLVQPGGSLRLSCAASGFNISAPGIHWVRQAPGKGLEWVGFINPAGGYTDYADSVKGRFTISADTSKNTAYLQMNSLRAEDTAVYYCARDYIRQYWTYVLDYWGQGTLVTVSS
# VL: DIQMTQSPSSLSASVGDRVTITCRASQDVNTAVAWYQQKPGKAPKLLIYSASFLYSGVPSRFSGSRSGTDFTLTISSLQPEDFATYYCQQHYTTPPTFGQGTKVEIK
# Target: T1, BCMA on BCMA-positive myeloma cell …
# Test: cell-based or functional assay
binder,measurement,value
B1,"ARP-1, Conjugate M 2° antibody cell killing, EC50",1.9 nM
same,"U266B1, Conjugate M 2° antibody cell killing, EC50",0.9 nM

# From patent US20240299570A1 (CELGENE, published 2024)
